According to PMC4847859:

Test system: CdpR (Pseudomonas aeruginosa PAO1)
Assay: EMSA

pqsH-p (pqsH-cdpR intergenic region)
K half: 500 nM
